In patent US20140147444A1 (published 2014):
Where two headings read alike, the source gives them in different places.

T1: human OPGbp [143-317] (human, UniProt O14788 143-317)
T1 construct: also called OPGL
T1 sequence (looked up): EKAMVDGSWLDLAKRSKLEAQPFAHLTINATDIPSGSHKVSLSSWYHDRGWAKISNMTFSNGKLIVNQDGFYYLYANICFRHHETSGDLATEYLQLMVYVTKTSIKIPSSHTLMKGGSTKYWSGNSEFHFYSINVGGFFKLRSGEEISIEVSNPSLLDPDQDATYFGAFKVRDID


Legend:
human OPGbp [143-317] [1] = target: T1, human OPGbp [143-317]; assay: SPR (BIAcore), immobilized OPGbp [143-317]
human OPGbp [143-317] [2] = target: T1, human OPGbp [143-317]; assay: SPR (BIAcore), immobilized OPGbp [143-317]; remark: listed apart in the source

Kd (human OPGbp [143-317] [1])	koff (human OPGbp [143-317] [1])	kon (human OPGbp [143-317] [1])	Binder	other results
0.43 nM	0.000197 s⁻¹	456000 M⁻¹ s⁻¹	“AT” antibody variant N98V (heavy chain CDR3) (antibody, name in Kabat numbering, V domains shown, not shown: human IgG1 CH1, hinge, CH2 and CH3) VH: QVQLVQSGAEVRKPGASVKVSCKASGYDFSNYAIHWVRQAPGQRLEWMGWINAGNGNTKFSQKFQGRITVTRDTAASTAYMELRSLRSEDTAVYYCARDSSVMVRGIIIAYYFDYWGQGTLVTVSS VL: EIVMTQSPSSLSASVGDRVTITCRASQSISRYLNWYQLKPGKAPRLLIYGASSLQSGVPSRFSGSGSGAEFTLTISSLQPEDIATYYCQHTRAFGQGTKVEIKR	
1.13 nM	0.00171 s⁻¹	1.51e+06 M⁻¹ s⁻¹	“AT” antibody variant N98P (heavy chain CDR3) (antibody, name in Kabat numbering, V domains shown, not shown: human IgG1 CH1, hinge, CH2 and CH3) VH: QVQLVQSGAEVRKPGASVKVSCKASGYDFSNYAIHWVRQAPGQRLEWMGWINAGNGNTKFSQKFQGRITVTRDTAASTAYMELRSLRSEDTAVYYCARDSSPMVRGIIIAYYFDYWGQGTLVTVSS VL: EIVMTQSPSSLSASVGDRVTITCRASQSISRYLNWYQLKPGKAPRLLIYGASSLQSGVPSRFSGSGSGAEFTLTISSLQPEDIATYYCQHTRAFGQGTKVEIKR	
41.3 nM	0.0112 s⁻¹	272000 M⁻¹ s⁻¹	“AT” antibody variant N98Y (heavy chain CDR3) (antibody, name in Kabat numbering, V domains shown, not shown: human IgG1 CH1, hinge, CH2 and CH3) VH: QVQLVQSGAEVRKPGASVKVSCKASGYDFSNYAIHWVRQAPGQRLEWMGWINAGNGNTKFSQKFQGRITVTRDTAASTAYMELRSLRSEDTAVYYCARDSSYMVRGIIIAYYFDYWGQGTLVTVSS VL: EIVMTQSPSSLSASVGDRVTITCRASQSISRYLNWYQLKPGKAPRLLIYGASSLQSGVPSRFSGSGSGAEFTLTISSLQPEDIATYYCQHTRAFGQGTKVEIKR	
0.81 nM	0.00151 s⁻¹	1.86e+06 M⁻¹ s⁻¹	“AT” antibody variant N98Q (heavy chain CDR3) (antibody, name in Kabat numbering, V domains shown, not shown: human IgG1 CH1, hinge, CH2 and CH3) VH: QVQLVQSGAEVRKPGASVKVSCKASGYDFSNYAIHWVRQAPGQRLEWMGWINAGNGNTKFSQKFQGRITVTRDTAASTAYMELRSLRSEDTAVYYCARDSSQMVRGIIIAYYFDYWGQGTLVTVSS VL: EIVMTQSPSSLSASVGDRVTITCRASQSISRYLNWYQLKPGKAPRLLIYGASSLQSGVPSRFSGSGSGAEFTLTISSLQPEDIATYYCQHTRAFGQGTKVEIKR	
2.93 nM	0.00768 s⁻¹	2.62e+06 M⁻¹ s⁻¹	“AT” antibody variant N98W (heavy chain CDR3) (antibody, name in Kabat numbering, V domains shown, not shown: human IgG1 CH1, hinge, CH2 and CH3) VH: QVQLVQSGAEVRKPGASVKVSCKASGYDFSNYAIHWVRQAPGQRLEWMGWINAGNGNTKFSQKFQGRITVTRDTAASTAYMELRSLRSEDTAVYYCARDSSWMVRGIIIAYYFDYWGQGTLVTVSS VL: EIVMTQSPSSLSASVGDRVTITCRASQSISRYLNWYQLKPGKAPRLLIYGASSLQSGVPSRFSGSGSGAEFTLTISSLQPEDIATYYCQHTRAFGQGTKVEIKR	
0.3 nM	0.00108 s⁻¹	3.59e+06 M⁻¹ s⁻¹	“AT” antibody variant N98R (heavy chain CDR3) (antibody, name in Kabat numbering, V domains shown, not shown: human IgG1 CH1, hinge, CH2 and CH3) VH: QVQLVQSGAEVRKPGASVKVSCKASGYDFSNYAIHWVRQAPGQRLEWMGWINAGNGNTKFSQKFQGRITVTRDTAASTAYMELRSLRSEDTAVYYCARDSSRMVRGIIIAYYFDYWGQGTLVTVSS VL: EIVMTQSPSSLSASVGDRVTITCRASQSISRYLNWYQLKPGKAPRLLIYGASSLQSGVPSRFSGSGSGAEFTLTISSLQPEDIATYYCQHTRAFGQGTKVEIKR	
0.58 nM	0.00154 s⁻¹	2.67e+06 M⁻¹ s⁻¹	“AT” antibody variant N98S (heavy chain CDR3) (antibody, name in Kabat numbering, V domains shown, not shown: human IgG1 CH1, hinge, CH2 and CH3) VH: QVQLVQSGAEVRKPGASVKVSCKASGYDFSNYAIHWVRQAPGQRLEWMGWINAGNGNTKFSQKFQGRITVTRDTAASTAYMELRSLRSEDTAVYYCARDSSSMVRGIIIAYYFDYWGQGTLVTVSS VL: EIVMTQSPSSLSASVGDRVTITCRASQSISRYLNWYQLKPGKAPRLLIYGASSLQSGVPSRFSGSGSGAEFTLTISSLQPEDIATYYCQHTRAFGQGTKVEIKR	

Further lines, the binder ahead of its results:

Binder	Kd (human OPGbp [143-317] [1])	koff (human OPGbp [143-317] [1])	kon (human OPGbp [143-317] [1])	other results
“AT” antibody variant N98F (heavy chain CDR3) (antibody, name in Kabat numbering, V domains shown, not shown: human IgG1 CH1, hinge, CH2 and CH3) VH: QVQLVQSGAEVRKPGASVKVSCKASGYDFSNYAIHWVRQAPGQRLEWMGWINAGNGNTKFSQKFQGRITVTRDTAASTAYMELRSLRSEDTAVYYCARDSSFMVRGIIIAYYFDYWGQGTLVTVSS VL: EIVMTQSPSSLSASVGDRVTITCRASQSISRYLNWYQLKPGKAPRLLIYGASSLQSGVPSRFSGSGSGAEFTLTISSLQPEDIATYYCQHTRAFGQGTKVEIKR	26600 nM	0.099 s⁻¹	3700 M⁻¹ s⁻¹	
“AT” antibody variant S97D (heavy chain CDR3) (antibody, name in Kabat numbering, V domains shown, not shown: human IgG1 CH1, hinge, CH2 and CH3) VH: QVQLVQSGAEVRKPGASVKVSCKASGYDFSNYAIHWVRQAPGQRLEWMGWINAGNGNTKFSQKFQGRITVTRDTAASTAYMELRSLRSEDTAVYYCARDSDNMVRGIIIAYYFDYWGQGTLVTVSS VL: EIVMTQSPSSLSASVGDRVTITCRASQSISRYLNWYQLKPGKAPRLLIYGASSLQSGVPSRFSGSGSGAEFTLTISSLQPEDIATYYCQHTRAFGQGTKVEIKR				binding result (human OPGbp [143-317] [2]): no binding
“AT” antibody variant S97E (heavy chain CDR3) (antibody, name in Kabat numbering, V domains shown, not shown: human IgG1 CH1, hinge, CH2 and CH3) VH: QVQLVQSGAEVRKPGASVKVSCKASGYDFSNYAIHWVRQAPGQRLEWMGWINAGNGNTKFSQKFQGRITVTRDTAASTAYMELRSLRSEDTAVYYCARDSENMVRGIIIAYYFDYWGQGTLVTVSS VL: EIVMTQSPSSLSASVGDRVTITCRASQSISRYLNWYQLKPGKAPRLLIYGASSLQSGVPSRFSGSGSGAEFTLTISSLQPEDIATYYCQHTRAFGQGTKVEIKR				Kd (human OPGbp [143-317] [2]): 1940 nM
“AT” antibody variant S97G (heavy chain CDR3) (antibody, name in Kabat numbering, V domains shown, not shown: human IgG1 CH1, hinge, CH2 and CH3) VH: QVQLVQSGAEVRKPGASVKVSCKASGYDFSNYAIHWVRQAPGQRLEWMGWINAGNGNTKFSQKFQGRITVTRDTAASTAYMELRSLRSEDTAVYYCARDSGNMVRGIIIAYYFDYWGQGTLVTVSS VL: EIVMTQSPSSLSASVGDRVTITCRASQSISRYLNWYQLKPGKAPRLLIYGASSLQSGVPSRFSGSGSGAEFTLTISSLQPEDIATYYCQHTRAFGQGTKVEIKR				binding result (human OPGbp [143-317] [2]): no binding
“AT” antibody variant N98M (heavy chain CDR3) (antibody, name in Kabat numbering, V domains shown, not shown: human IgG1 CH1, hinge, CH2 and CH3) VH: QVQLVQSGAEVRKPGASVKVSCKASGYDFSNYAIHWVRQAPGQRLEWMGWINAGNGNTKFSQKFQGRITVTRDTAASTAYMELRSLRSEDTAVYYCARDSSMMVRGIIIAYYFDYWGQGTLVTVSS VL: EIVMTQSPSSLSASVGDRVTITCRASQSISRYLNWYQLKPGKAPRLLIYGASSLQSGVPSRFSGSGSGAEFTLTISSLQPEDIATYYCQHTRAFGQGTKVEIKR	27.5 nM	0.0814 s⁻¹	2.96e+06 M⁻¹ s⁻¹	
“AT” antibody variant S97F (heavy chain CDR3) (antibody, name in Kabat numbering, V domains shown, not shown: human IgG1 CH1, hinge, CH2 and CH3) VH: QVQLVQSGAEVRKPGASVKVSCKASGYDFSNYAIHWVRQAPGQRLEWMGWINAGNGNTKFSQKFQGRITVTRDTAASTAYMELRSLRSEDTAVYYCARDSFNMVRGIIIAYYFDYWGQGTLVTVSS VL: EIVMTQSPSSLSASVGDRVTITCRASQSISRYLNWYQLKPGKAPRLLIYGASSLQSGVPSRFSGSGSGAEFTLTISSLQPEDIATYYCQHTRAFGQGTKVEIKR				binding result (human OPGbp [143-317] [2]): no binding
“AT” antibody variant N98H (heavy chain CDR3) (antibody, name in Kabat numbering, V domains shown, not shown: human IgG1 CH1, hinge, CH2 and CH3) VH: QVQLVQSGAEVRKPGASVKVSCKASGYDFSNYAIHWVRQAPGQRLEWMGWINAGNGNTKFSQKFQGRITVTRDTAASTAYMELRSLRSEDTAVYYCARDSSHMVRGIIIAYYFDYWGQGTLVTVSS VL: EIVMTQSPSSLSASVGDRVTITCRASQSISRYLNWYQLKPGKAPRLLIYGASSLQSGVPSRFSGSGSGAEFTLTISSLQPEDIATYYCQHTRAFGQGTKVEIKR	1.06 nM	0.00234 s⁻¹	2.2e+06 M⁻¹ s⁻¹	
“AT” antibody variant N98I (heavy chain CDR3) (antibody, name in Kabat numbering, V domains shown, not shown: human IgG1 CH1, hinge, CH2 and CH3) VH: QVQLVQSGAEVRKPGASVKVSCKASGYDFSNYAIHWVRQAPGQRLEWMGWINAGNGNTKFSQKFQGRITVTRDTAASTAYMELRSLRSEDTAVYYCARDSSIMVRGIIIAYYFDYWGQGTLVTVSS VL: EIVMTQSPSSLSASVGDRVTITCRASQSISRYLNWYQLKPGKAPRLLIYGASSLQSGVPSRFSGSGSGAEFTLTISSLQPEDIATYYCQHTRAFGQGTKVEIKR	7.6 nM	0.00436 s⁻¹	568000 M⁻¹ s⁻¹	
“AT” antibody variant N98L (heavy chain CDR3) (antibody, name in Kabat numbering, V domains shown, not shown: human IgG1 CH1, hinge, CH2 and CH3) VH: QVQLVQSGAEVRKPGASVKVSCKASGYDFSNYAIHWVRQAPGQRLEWMGWINAGNGNTKFSQKFQGRITVTRDTAASTAYMELRSLRSEDTAVYYCARDSSLMVRGIIIAYYFDYWGQGTLVTVSS VL: EIVMTQSPSSLSASVGDRVTITCRASQSISRYLNWYQLKPGKAPRLLIYGASSLQSGVPSRFSGSGSGAEFTLTISSLQPEDIATYYCQHTRAFGQGTKVEIKR	0.82 nM	0.00122 s⁻¹	1.48e+06 M⁻¹ s⁻¹	
“AT” antibody variant S97H (heavy chain CDR3) (antibody, name in Kabat numbering, V domains shown, not shown: human IgG1 CH1, hinge, CH2 and CH3) VH: QVQLVQSGAEVRKPGASVKVSCKASGYDFSNYAIHWVRQAPGQRLEWMGWINAGNGNTKFSQKFQGRITVTRDTAASTAYMELRSLRSEDTAVYYCARDSHNMVRGIIIAYYFDYWGQGTLVTVSS VL: EIVMTQSPSSLSASVGDRVTITCRASQSISRYLNWYQLKPGKAPRLLIYGASSLQSGVPSRFSGSGSGAEFTLTISSLQPEDIATYYCQHTRAFGQGTKVEIKR				Kd (human OPGbp [143-317] [2]): 3 nM; koff (human OPGbp [143-317] [2]): 0.00248 s⁻¹; kon (human OPGbp [143-317] [2]): 839000 M⁻¹ s⁻¹
“AT” antibody variant N98G (heavy chain CDR3) (antibody, name in Kabat numbering, V domains shown, not shown: human IgG1 CH1, hinge, CH2 and CH3) VH: QVQLVQSGAEVRKPGASVKVSCKASGYDFSNYAIHWVRQAPGQRLEWMGWINAGNGNTKFSQKFQGRITVTRDTAASTAYMELRSLRSEDTAVYYCARDSSGMVRGIIIAYYFDYWGQGTLVTVSS VL: EIVMTQSPSSLSASVGDRVTITCRASQSISRYLNWYQLKPGKAPRLLIYGASSLQSGVPSRFSGSGSGAEFTLTISSLQPEDIATYYCQHTRAFGQGTKVEIKR	24.3 nM	0.00559 s⁻¹	230000 M⁻¹ s⁻¹	
“AT” antibody variant N98K (heavy chain CDR3) (antibody, name in Kabat numbering, V domains shown, not shown: human IgG1 CH1, hinge, CH2 and CH3) VH: QVQLVQSGAEVRKPGASVKVSCKASGYDFSNYAIHWVRQAPGQRLEWMGWINAGNGNTKFSQKFQGRITVTRDTAASTAYMELRSLRSEDTAVYYCARDSSKMVRGIIIAYYFDYWGQGTLVTVSS VL: EIVMTQSPSSLSASVGDRVTITCRASQSISRYLNWYQLKPGKAPRLLIYGASSLQSGVPSRFSGSGSGAEFTLTISSLQPEDIATYYCQHTRAFGQGTKVEIKR				binding result (human OPGbp [143-317] [1]): no binding
